The assay deals with T1, recombinant human LRP6-Fc chimera (human, UniProt O75581 20-1370).
T1 construct: extracellular domain; also called ECD of human LRP6; not shown: Fc part of the chimera
T1 sequence (looked up): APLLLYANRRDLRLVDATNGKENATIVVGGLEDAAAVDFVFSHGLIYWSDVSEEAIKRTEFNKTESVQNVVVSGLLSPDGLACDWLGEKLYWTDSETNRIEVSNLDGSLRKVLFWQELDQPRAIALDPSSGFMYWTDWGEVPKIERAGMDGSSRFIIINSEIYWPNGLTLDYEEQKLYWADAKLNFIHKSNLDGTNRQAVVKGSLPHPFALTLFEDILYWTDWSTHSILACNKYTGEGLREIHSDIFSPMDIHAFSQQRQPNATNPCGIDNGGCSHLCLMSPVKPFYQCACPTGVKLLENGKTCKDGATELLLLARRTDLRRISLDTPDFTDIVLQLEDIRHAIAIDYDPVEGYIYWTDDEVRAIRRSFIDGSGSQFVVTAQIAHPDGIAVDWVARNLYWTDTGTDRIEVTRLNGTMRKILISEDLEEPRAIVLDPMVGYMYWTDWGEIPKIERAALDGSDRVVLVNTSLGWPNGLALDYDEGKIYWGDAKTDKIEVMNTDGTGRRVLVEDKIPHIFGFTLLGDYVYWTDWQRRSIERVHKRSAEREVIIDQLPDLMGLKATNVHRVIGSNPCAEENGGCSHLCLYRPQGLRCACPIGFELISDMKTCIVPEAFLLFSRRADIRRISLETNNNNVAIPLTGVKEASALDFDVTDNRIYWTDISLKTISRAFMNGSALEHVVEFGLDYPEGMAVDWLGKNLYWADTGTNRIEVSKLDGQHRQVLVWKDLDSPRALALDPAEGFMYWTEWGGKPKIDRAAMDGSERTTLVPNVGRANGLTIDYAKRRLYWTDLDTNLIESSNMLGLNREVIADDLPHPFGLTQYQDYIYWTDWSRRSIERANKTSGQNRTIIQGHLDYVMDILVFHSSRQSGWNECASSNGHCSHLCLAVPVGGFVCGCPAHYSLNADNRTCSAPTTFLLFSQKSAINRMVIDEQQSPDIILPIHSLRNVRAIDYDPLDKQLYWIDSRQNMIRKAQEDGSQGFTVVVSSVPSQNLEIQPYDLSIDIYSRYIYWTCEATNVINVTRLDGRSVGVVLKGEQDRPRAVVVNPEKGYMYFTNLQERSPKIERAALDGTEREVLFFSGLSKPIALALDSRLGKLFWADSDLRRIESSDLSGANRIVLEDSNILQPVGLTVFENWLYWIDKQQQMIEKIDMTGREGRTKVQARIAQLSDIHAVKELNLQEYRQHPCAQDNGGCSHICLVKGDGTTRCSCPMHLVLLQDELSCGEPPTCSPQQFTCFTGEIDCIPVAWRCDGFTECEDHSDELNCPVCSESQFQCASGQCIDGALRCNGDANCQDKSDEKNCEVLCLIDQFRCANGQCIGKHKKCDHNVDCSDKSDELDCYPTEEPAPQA
Nature of the assay: multipoint competitive ELISA, IgG1; varied competitor printed as recombinant human LRP6-Fc chimera, while paragraph 283 says 'the recombinant antigen'. From the text:
The full length IgG1s and the antibody fragments (Fabs) were purified and a single-point ELISA was done to determine the specificity of the antibodies. […] A multipoint competitive ELISA was used to determine the relative affinities of the antibodies to the recombinant antigen.
Table 3 reports the IC50 of LRP5 antibodies as determined by competitive ELISA. The log of the recombinant human LRP6-Fc chimera concentration (x-axis) was plotted against the OD450 reading of the antibody (y-axis). The IC50 was determined by non-linear regression analysis.
Background: ELISA stands for enzyme-linked immunosorbent assay.

The IC50 is the midpoint of a concentration-inhibition curve.

B1: LRP5-H5 (antibody, V domains shown)
VH: EVQLVESGGGLVQPGGSLRLSCAASGFNLSYSSIHWVRQAPGKGLEWVASISSSYGSTSYADSVKGRFTISADTSKNTAYLQMNSLRAEDTAVYYCARGYWAIDYWGQGTLVTVSS
VL: DIQMTQSPSSLSASVGDRVTITCRASQSVSSAVAWYQQKPGKAPKLLIYSASSLYSGVPSRFSGSRSGTDFTLTISSLQPEDFATYYCQQPVGHYGYPITFGQGTKVEIKR
notes: Fab-phage in the screen
On to B1, for which the IC50 was found to be 4.44 nM.

(Values after patent publication US20230183336A1 (MODMAB THERAPEUTICS, published 2023).)
